From patent publication US20150158938A1 (SNU R AND DB FOUNDATION, published 2015)

Biological target: T1, vascular endothelial growth factor receptor-2 (VEGFR2) on HUVEC (human, UniProt P35968 20-1356)
T1 construct: whole, on cells
Experiment: flow cytometry on HUVEC (express VEGFR2), FITC anti-His detection

T1 sequence (P35968 20-1356): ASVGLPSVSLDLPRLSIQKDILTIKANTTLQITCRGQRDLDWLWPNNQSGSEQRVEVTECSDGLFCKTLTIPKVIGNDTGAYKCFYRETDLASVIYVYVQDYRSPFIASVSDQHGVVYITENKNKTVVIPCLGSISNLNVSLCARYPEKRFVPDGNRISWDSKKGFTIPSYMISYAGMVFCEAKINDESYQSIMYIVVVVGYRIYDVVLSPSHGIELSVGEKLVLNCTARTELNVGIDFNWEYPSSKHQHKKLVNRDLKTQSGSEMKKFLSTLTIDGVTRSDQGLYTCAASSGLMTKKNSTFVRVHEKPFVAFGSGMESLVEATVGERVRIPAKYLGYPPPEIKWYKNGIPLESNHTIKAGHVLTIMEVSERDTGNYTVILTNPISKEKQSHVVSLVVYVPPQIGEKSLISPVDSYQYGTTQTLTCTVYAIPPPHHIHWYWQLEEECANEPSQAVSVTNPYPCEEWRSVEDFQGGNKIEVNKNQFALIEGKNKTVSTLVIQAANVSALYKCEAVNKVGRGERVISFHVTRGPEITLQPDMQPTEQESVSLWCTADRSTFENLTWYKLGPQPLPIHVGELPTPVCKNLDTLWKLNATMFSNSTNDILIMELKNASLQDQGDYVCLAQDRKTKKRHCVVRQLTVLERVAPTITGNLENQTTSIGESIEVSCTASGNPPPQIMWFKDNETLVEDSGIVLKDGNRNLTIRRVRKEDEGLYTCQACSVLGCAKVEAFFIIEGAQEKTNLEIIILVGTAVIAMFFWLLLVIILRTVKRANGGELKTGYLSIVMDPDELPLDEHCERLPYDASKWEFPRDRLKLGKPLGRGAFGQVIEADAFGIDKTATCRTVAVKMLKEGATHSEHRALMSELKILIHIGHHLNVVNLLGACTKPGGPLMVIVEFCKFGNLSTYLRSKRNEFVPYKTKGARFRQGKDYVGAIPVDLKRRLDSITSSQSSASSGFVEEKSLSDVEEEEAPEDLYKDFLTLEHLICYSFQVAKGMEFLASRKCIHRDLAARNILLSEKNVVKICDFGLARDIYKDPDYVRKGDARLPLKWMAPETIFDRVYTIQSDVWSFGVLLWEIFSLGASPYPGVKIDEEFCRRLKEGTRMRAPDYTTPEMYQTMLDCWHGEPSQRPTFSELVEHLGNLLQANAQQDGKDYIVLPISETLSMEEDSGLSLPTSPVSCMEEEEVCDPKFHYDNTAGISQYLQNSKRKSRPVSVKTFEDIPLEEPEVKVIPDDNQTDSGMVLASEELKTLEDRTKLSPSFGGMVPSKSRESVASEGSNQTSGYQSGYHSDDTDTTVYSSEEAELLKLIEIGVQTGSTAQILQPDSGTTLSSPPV

- binding result: no binding (tested: 100 nM)
B1: His-tagged gremlin-1 (R&D Systems) (ligand, UniProt O60565 25-184, looked up)
chain: KKKGSQGAIPPPDKAQHNDSEQTQSPQQPGSRNRGRGQGRGTAMPGEEVLESSQEALHVTERKYLKRDWCKTQPLKQTIHEEGCNSRTIINRFCYGQCNSFYIPRHIRKEEGSFQSCSFCKPKKFTTMMVTLNCPELQPPTKKKRVTRVKQCRCISIDLD
notes: Commercial protein; not shown: His tag
